Source: US8927205

Legend:
[1] = target: TNFR1-Fas receptor chimera on mouse fibroblasts from TNFR1/TNFR2 double-knockout mice (MF TNFR1-Fas cells) (UniProt P19438); assay: cell-based or functional assay
[2] = target: normal human wild-type TNF receptors on Kym1 cells; assay: cell-based or functional assay

Sequence of TNFR1-Fas receptor chimera on mouse fibroblasts from TNFR1/TNFR2 double-knockout mice (MF TNFR1-Fas cells) (P19438 other isoform, or with tags, fused parts or gaps mutant limits assumed): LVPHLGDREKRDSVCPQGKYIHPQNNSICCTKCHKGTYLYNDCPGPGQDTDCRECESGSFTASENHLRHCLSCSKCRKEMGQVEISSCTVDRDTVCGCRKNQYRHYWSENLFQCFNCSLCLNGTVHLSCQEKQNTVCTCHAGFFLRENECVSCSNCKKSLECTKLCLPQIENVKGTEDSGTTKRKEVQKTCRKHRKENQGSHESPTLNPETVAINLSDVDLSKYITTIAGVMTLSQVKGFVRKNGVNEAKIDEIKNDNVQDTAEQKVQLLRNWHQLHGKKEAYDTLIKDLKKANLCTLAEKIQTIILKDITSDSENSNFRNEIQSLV

Substance: soluble human wild-type TNF (from UniProt P01375 57-233) (ligand)
- ED50 (half-maximal effective concentration), cytotoxicity on MF TNFR1-Fas cells, freshly prepared dilutions [1]: 0.2 ng/mL
- ED50, cytotoxicity on MF TNFR1-Fas cells, dilutions stored 8 days at 37° C. before the test [1]: 2 ng/mL
- ED50, cytotoxicity on MF TNFR1-Fas cells, solutions stored 14 days at 37° C. before the test [1]: 2.8 ng/mL
- ED50, cytotoxicity on Kym1 cells, solutions stored 16 days at 37° C. (FIG. 8) [2]: 1.2 ng/mL
- ED50 after 8 days (FIG. 12), stored at 37° C. in 100% human serum, cytotoxicity on Kym1 cells [2]: 0.4 ng/mL
- ED50 after 22 days (FIG. 9), cytotoxicity on Kym1 cells, samples stored at 37° C. [2]: 1.5 ng/mL
- ED50 freshly titrated (FIG. 7), cytotoxicity on Kym1 cells [2]: 0.1 ng/mL
- ED50 freshly titrated (FIG. 11), diluted in 100% human serum, cytotoxicity on Kym1 cells [2]: 0.004 ng/mL
